Test results as given in patent US20260201030A1, “ANTIBODY, ANTIBODY-DRUG CONJUGATE THEREOF AND USE THEREOF” (EVOPOINT BIOSCIENCES CO., LTD., priority 2021, published 2026).
Residue numbers refer to the chain shown, from its start. Each block holds one molecule with its values, some of them ahead of it.

Assays:
human Claudin18.1 = biological target: T1, human Claudin18.1 (Homo sapiens, UniProt P56856); assay: FACS specificity of humanized antibodies on HEK293T-Claudin18.1 (human) cells; type: binding; settings: antibody 50 μg/mL, PE secondary antibody
T1 construct: expressed in transfected cells
Experimental: The specificity of the anti-human Claudin18.2 humanized monoclonal antibodies was determined by flow cytometry (FACS). The experimental procedures were as follows: HEK293T-Claudin18.1 (human) cells were digested, collected by centrifugation, washed three times with pre-cooled PBS, resuspended in 1% BSA (in PBS), and added to a 96-well pointed bottom plate at 3×10^5 cells/well. Each test antibody with a final concentration of 50 μg/mL was added, and the mixture was incubated at 4° C. for 1 h. The cells were washed three times with pre-cooled PBS, and then 1 μL of a fluorescent secondary antibody (APC: Biolegend-410712 or PE: BioLegend-410708) was added to each well. The mixture was incubated at 4° C. for 0.5 h, and the cells were washed three times with pre-cooled PBS, then resuspended, and assayed on a flow cytometer. For reference, anti-human Claudin18.1 positive control antibodies (positive control antibody-1 and positive control antibody-2) were included in the experiment.

human Claudin18.2 [1] = biological target: T2, human Claudin18.2 (Homo sapiens, UniProt P56856); assay: Cell-based ELISA affinity of humanized antibodies on L929-Claudin18.2 (human) cells; type: binding; settings: L929-Claudin18.2 cells
T2 construct: expressed in transfected cells

[2] = tested on: HEK293T-Claudin18.2 (human) cells; assay: CDC activity, guinea pig serum killing experiment; type: cell-based; settings: 20% guinea pig serum, 5 h
Experimental: CDC activity of the anti-human Claudin18.2 humanized monoclonal antibodies was detected by a guinea pig serum killing experiment. The experimental procedures were as follows: HEK293T-Claudin18.2 (human) cells were digested, collected by centrifugation, plated at 50000 cells/well, and incubated overnight. The supernatant was discarded, and 100 μL of each test antibody subjected to gradient dilution with DMEM+20% guinea pig serum (Beijing Bersee, BM361Y) was added to each well. The mixture was incubated at 37° C. for 5 h, and 20 μL of a CCK8 reagent (Suzhou Rhino Bio, QDY-003-D) was added to each well. The mixture was allowed to react for 1-4 h, and readings were taken at 450 nm on a microplate reader.

human Claudin18.2 [3] = biological target: T2, human Claudin18.2; assay: Cell ELISA affinity before and after conjugation, NUGC4 cells; type: binding; settings: FIG. 8B
Experimental: (§1) The cell binding affinity of the antibody before and after conjugation to the toxin was detected according to a method similar to that described in Example 2.2. L929-claudin 18.2 (human) or NUGC4 cells were digested with trypsin, collected by centrifugation, washed three times with pre-cooled PBS, resuspended, added to a 96-well plate at 5×10^4 cells/well, and incubated overnight. The cells were fixed with 4% paraformaldehyde and blocked with 2% BSA (in PBS) at 37° C. for 2 h. Each ADC drug or antibody subjected to gradient dilution was added, and the mixture was incubated at 37° C. for 2 h. […] A TMB substrate was added for color development, and after the reaction was stopped by 2 M HCl, OD450 nm values were read on a microplate reader.

human Claudin18.2 [4] = biological target: T2, human Claudin18.2; assay: Cell ELISA affinity before and after conjugation, L929-claudin 18.2 (human) cells; type: binding; settings: FIG. 8A
Experimental: as §1

human Claudin18.2 [5] = biological target: T2, human Claudin18.2; assay: Cell-based ELISA affinity of humanized antibodies on HEK293T-Claudin18.2 (human) cells; type: binding; settings: HEK293T-Claudin18.2 cells
Experimental: The affinity of the anti-human Claudin18.2 murine monoclonal antibodies was evaluated by cell-based ELISA. The experimental procedures were as follows: The day before the experiment, HEK293T-Claudin18.2 (human) cells were plated in a 96-well plate at 5×10^4 cells/well. On the day of the experiment, the supernatant was removed, the cells in each well were washed once with 300 μL of PBS, and 100 μL of 4% paraformaldehyde was added to each well for fixation at room temperature for 20 min. Paraformaldehyde was then removed, and the cells in each well were washed twice with 300 μL of PBS. 100 μL of 2% BSA (in PBS) was added to each well, and the mixture was blocked at 37° C. for 2 h. After removing the blocking solution, each antibody subjected to gradient dilution (diluted with 2% BSA (in PBS), starting at […], in a 3-fold gradient, for a total of 11 concentration points) was added to the plate at 100 μL/well, and the mixture was incubated at 37° C. for 2 h. The supernatant was removed, and the cells in each well were washed three times with 300 μL of PBST. 100 μL of an anti-mouse IgG HRP secondary antibody (Jackson, cat #115-035-003) in 2% BSA was added to each well, and the mixture was incubated at 37° C. for 1 h. The secondary antibody was then removed, and the cells in each well were washed five times with 300 μL of PBST, followed by the addition of 100 μL of a TMB substrate (Huzhou InnoReagents Co., Ltd.) per well for color development for 5-20 min. The reaction was stopped by adding 50 μL of 2 N HCl to each well, and OD450 nm values were read on a microplate reader (manufacturer: MD, model: SpectraMax). The values obtained were plotted by GraphPad Prism to calculate the EC50 value.
The affinity of the anti-human Claudin18.2 humanized monoclonal antibodies was determined by cell-based ELISA. The cell-based ELISA was conducted as described in Example I-3.

human Claudin18.2 [6] = biological target: T2, human Claudin18.2; assay: Cell-based FACS affinity on HEK293T-Claudin18.2 (human) cells; type: binding
Experimental: The affinity of the anti-human Claudin18.2 humanized antibodies was detected by flow cytometry. The experimental procedures were as follows: The adherent cultured HEK293T-Claudin18.2 (human), NUGC4-Claudin18.2 (human) and NUGC4 cells were digested, collected by centrifugation, and washed three times with pre-cooled PBS. The cells were resuspended in 1% BSA (in PBS) and added to a 96-well pointed bottom plate at 3×10^5 cells/well, with a volume of 50 μL per well. Each test antibody was diluted with 1% BSA (in PBS) (starting at 100 μg/mL, diluted in a 3-fold gradient, for 10 concentration points). The test antibody subjected to gradient dilution was added to the cells at 50 μL/well, and the mixture was well mixed and incubated at 4° C. for 1 h. The cells were collected by centrifugation, washed three times with pre-cooled PBS, and resuspended in 50 μL of 1% BSA (in PBS). 1 μL of a fluorescent secondary antibody (Biolegend-410712) was added to each well, and the mixture was well mixed and incubated at 4° C. for 0.5 h. The cells were collected by centrifugation, washed three times with pre-cooled PBS, resuspended in 200 μL of PBS, and assayed on a machine.

human Claudin18.2 [7] = biological target: T2, human Claudin18.2; assay: Cell-based ELISA affinity on NUGC4 cells endogenously expressing human Claudin18.2; type: binding; settings: for NUCG4 Maximum signal value: OD450

Mean PE fluorescence signal value (human Claudin18.1): 583
Median PE fluorescence signal value (human Claudin18.1): 504
Positive rate (%) (human Claudin18.1): 0.54%
Affinity detected by cell-based ELISA (EC50, ng/mL) L929-Claudin18.2 (human Claudin18.2 [1]): 13.41 ng/mL
change in affinity for the cells before and after conjugation (human Claudin18.2 [3]): no significant changes in the affinity
change in affinity for the cells before and after conjugation (human Claudin18.2 [4]): no significant changes in the affinity
Affinity detected by cell-based ELISA (EC50, ng/mL) HEK293T-Claudin18.2 (human Claudin18.2 [5]): 11.15 ng/mL
HEK293T-Claudin18.2 EC50 (human Claudin18.2 [6]): 0.292 µg/mL
HEK293T-Claudin18.2 Maximum signal value (human Claudin18.2 [6]): 113572
NUCG4 EC50 (human Claudin18.2 [7]): 0.1012 µg/mL
NUCG4 Maximum signal value (human Claudin18.2 [7]): 0.304
B1: 25C7A5-HZ1: humanized anti-Claudin18.2 antibody, VH SEQ ID NO: 1, VL SEQ ID NO: 2, human IgG1/Kappa constant regions (antibody, V domains shown)
VH: QVQLVQSGAEVKKPGSSVKVSCKASGYTFTNYWLHWVRQAPGQGLEWMGMMHPISGSSNYAQKFQGRATLTVDKSTSTAYMELSSLRSEDTAVYYCARGLLSAMDYWGQGTLVTVSS
VL: EIVLTQSPATLSLSPGERATLSCKASENVKTYVSWYQQKPGQSPRLLIYEASNRYTGVPARFSGSGSATDFTLTISSLEPEDFAVYFCGQTYSFPPTFGQGTKVEIK
modifications: human IgG1/kappa constant regions
CDC activity EC50 [2]: 3.137 µg/mL

Mean PE fluorescence signal value (human Claudin18.1): 559
Median PE fluorescence signal value (human Claudin18.1): 471
Positive rate (%) (human Claudin18.1): 0.55%
Affinity detected by cell-based ELISA (EC50, ng/mL) L929-Claudin18.2 (human Claudin18.2 [1]): 14.80 ± 3.1(N = 2) ng/mL
change in affinity for the cells before and after conjugation (human Claudin18.2 [3]): no significant changes in the affinity
change in affinity for the cells before and after conjugation (human Claudin18.2 [4]): no significant changes in the affinity
Affinity detected by cell-based ELISA (EC50, ng/mL) HEK293T-Claudin18.2 (human Claudin18.2 [5]): 11.17 ± 2.19(N = 2) ng/mL
HEK293T-Claudin18.2 EC50 (human Claudin18.2 [6]): 0.2928 µg/mL
HEK293T-Claudin18.2 Maximum signal value (human Claudin18.2 [6]): 119070
NUCG4 EC50 (human Claudin18.2 [7]): 0.1225 µg/mL
NUCG4 Maximum signal value (human Claudin18.2 [7]): 0.313
B2: 25C7A5-HZ2: humanized anti-Claudin18.2 antibody, VH SEQ ID NO: 3, VL SEQ ID NO: 2, human IgG1/Kappa constant regions (antibody, V domains shown)
VH: B1 VH with Q6E
VL: B1 VL
modifications: human IgG1/kappa constant regions
CDC activity EC50 [2]: 3.283 µg/mL
